Measured values published in the DeepSol protein solubility set.

test: soluble on expression in E. coli; label from the status in PepcDB or PDB records

Row | Sequence | soluble on expression in E. coli
1 | MGSDKIHHHHHHMDDRIVVTTQQVRALIASQFPQWAALDVQPVDLSGWDNRSFRLGEDMLVRMPSAERYVAQVEKEHRWLPELGPLLPVPIPAPLALGQPGEQYPFCWSVYRWLKGEPLARYLDSIELSAIAIDVAAFLKALHGIDASAGPPAGAHNFHRGGSLAVYDGEARASAARLANEVDQALAMEIWQLALSSHWQGKGVWVHGDIAEGNLLVQDGRLSAVIDFGSSGVGDPSSDLILAWNVLDAHSRAVFRQALGLDEATWQRGRGWALWKALIVLDAERGRNEKMAEWSRRTLREIFADHLEN | not soluble
2 | MQEEVNQKTVALSIRTTKLTGKVLAAALGKVVRALQKHHRKALTPQGRQSVKKLMNHYGGKSAMPYVGAPKDFDRIAKEFHVDYAFHKVSPGHYLLFFKANQADAITAAFQKYSAKVLNKEQDKASILGQLRKFTEQIRTQAKEKQRTREAVKDGR | not soluble
3 | MRGSAFNGKWETESQEGYEPFCKLIGIPDDVIAKGRDFKLVTEIVQNGDDFTWTQYYPNNHVVTNKFIVGKESDMETVGGKKFKGIVSMEGGKLTISFPKYQQTTEISGGKLVETSTASGAQGTAVLVRTSKKVLVPR | soluble
4 | MSAIEVTADAASTWDWPLQHNDGVVKVHNTKEKFEVGLDVQFFTPKEIEVKVSGQELLIHCRHETRSDNHGTVAREINRAYKLPDDVDVSTVKSHLATRGVLTITASKKA | soluble
5 | MSLKITRIEAIPYAIPYSRPLKFASGEVSTAEHVLVRIHTDAGICGVADTPPRPYTYGETQDSIVSVVTKVFAPQLIGMDPMDRSKVQQLLGRTVNNPTAKGALDIALWDVIGISLGTPVHKLLGGFSDSMRVSHMLGFKAAAELLEEALRFRETYGIDTFKLKVGRRPLSLDVEACHVLREGLGADTEIYLDANRGWTANEAMEVLRRTEGLGLSMLEEPCDAAEAMGRRRLVQHSSIPIVGDESVPNLGDVSRELLSGGSNAICIKTARSGFTEAQQILGLCEGLGVDVTMGNQIDTQVGSLATVTFGAAFEASSRRAGELSNYLDMTDDLLAEPLEITDGAIRVRKAPGVGAAIDADKLQKYREGHHHHHH | soluble
6 | MTGTSNIPTHGKEHKDAPALLPLPAPNPHHTHAAHPGNPSHDRPPSRGKLFIKTHGCQMNEYDSAKMADVLTTTEALELTDNPEEADIILINTCSIREKAQEKVFSQLGRWRALKTSGRDVIIGVGGCVASQEGEAIVKRAPYVDLVFGPQTLHRLPDMIRARREQNRPQVDIRFPEIEKFDHLPTPRAEGPSAFVSIMEGCSKYCSFCVVPYTRGEEVSRPFEDVLTEIAHLATQGVREINLLGQNVNAYRGAMDPGPSNNTNPAPPPYADLGLLIRAIAQFESIGRIRFTTSHPLEFSDSLVEAYRDVPQLANHLHLPVQSGSDRILSAMKRGYTALEFKSKIRKLRAVRPDISISSDFIIGFPGESDTDFQKTMQLIEDIGFDQSFSFIYSRRPGTPASNLEDHTPDEIKRTRLEHLQKHINTYAADISKRMIGTVQTVLVEGPSKKNPNELTGKTENMRPVNFPGHPRLIGQFIDVHITEALSNSLRGRVHTNLEHHHHHH | soluble
7 | MGSDKIHHHHHHMKTVRIETFGCKVNQYESEYMAEQLEKAGYVVLPDGNAAYYIVNSCAVTKEVEKKVKRLIKSIRNRNKNAKIILTGCFAQLSPDEAKNLPVDMVLGIDEKKHIVDHINSLNGKQQVVVSEPGRPVYEKVKGSFEDRTRSYIKVEDGCDNTCTYCAIRLARGTRIRSKPLEIFKEEFAEMVMKGYKEIVITGVNLGKYGKDMGSSLAELLKVIEKVPGDYRVRLSSINVEDVNDEIVKAFKRNPRLCPHLHISVQSGSDDVLKRMGRKYKISDFMRVVDKLRSIDPDFSITTDIIVGFPGETDADFQRTLELVEKVEFSRVHIFRFSPRPGTPASRMEGGVPESKKKERLDVLKEKAKDVSIRYRKRIIGKERKVLAEWYVMKGVLSGYDEYYVKHEFVGNRVGEFHSVRVKSLSEEGVISCRADMVEGKVPARG | not soluble
8 | MQYDYLEALVKDLSLYKIKTEINMKNLRIWQTLSLWLVLLVTSLPLSAQTALLEKLGKIADITGTQPLESTEFVEKYVAYFTQPLDHRHPEKGSFSQRVIVSHVGFDRPTVMVTEGYGASYALGANYREELSKLFNTNMIFVEYRYFLESTPTPKDWQYLTAENSAEDLHAVREAFRSIYPGKWIATGISKGGQTAMLYRTFFPEDVDISVPYVAPLCYGVEDGRHEPFLKMVSTPEARKKIEDFQLEVLKRKPTLLPRFEKYCAGKKYKFRAPVEEIYDYSVLEYSFSIWQWGTPVDQIPAVTASDDELFKHLLAISEPSYFEEEGANTSFFVQAARELGYYGYDIRPFKKYLTIKTSKDYLKRLMLPEELGDMKFDKTLSRKIIHFLKNNDPKMIFIYGQNDPWTAAGVTWLKGKKNIHVFVEPNGSHLARIGTLPQKEKEEAIGLIKKWLEE | not soluble
9 | MLEFVMREWKKSRKLLGQRLFNKLMKMTFYGHFVAGEDQESIQPLLRHYRAFGVSAILDYGVEEDLSPEEAEHKEMESCTSAAERDGSGTNKRDKQYQAHRAFGDRRNGVISARTYFYANEAKCDSHMETFLRCIEASGRVSDDGFIAIKLTALGRPQFLLQFSEVLAKWRCFFHQMAVEQGQAGLAAMDTKLEVAVLQESVAKLGIASRAEIEDWFTAETLGVSGTMDLLDWSSLIDSRTKLSKHLVVPNAQTGQLEPLLSRFTEEEELQMTRMLQRMDVLAKKATEMGVRLMVDAEQTYFQPAISRLTLEMQRKFNVEKPLIFNTYQCYLKDAYDNVTLDVELARREGWCFGAKLVRGAYLAQERARAAEIGYEDPINPTYEATNAMYHRCLDYVLEELKHNAKAKVMVASHNEDTVRFALRRMEELGLHPADHQVYFGQLLGMCDQISFPLGQAGYPVYKYVPYGPVMEVLPYLSRRALENSSLMKGTHRERQLLWLELLRRLRTGNLFHRPA | soluble
10 | MPLVSVVMPVYNSAATLGAAVRSVLTQTHGDLELLVTDDQSSDGSMDLLREFAAQDERVLPRSSPERGGAGRARNLAIERARGDYVAFLDSDDMWLPEKTEKQLAFAAEGTAPLTFTSYFKMDADHDGESTDWVPNGRVIRAREHVDYRAMLVQDHIGALTAMYDRNVLGTRLMPEMRKRQDYALWLSIMRDGADARGLAEPLAVYRAHQAGSLSSNKLSLVEYNWALYREHENLSVPRATRALAGAVWQSLRNSRILEHHHHHH | not soluble
11 | MVYVKSLLRRADNFMYIVKKSSEARAALLVDLVNEEDYKELADKENIDITAVLTTHHHYDHCGGNEGFRRQFPNVMILGGDSRIPAMDRHVKHGDMAEFAGLQIKCLSTPCHTSGHICYHITNPAADSTSPGVVFTGDTLFIAGCGRFFEGTAPQMDVALNEILKNLPVETQIFPGHEYTVANLKFACHVEPGNEKAAQKLEWAQRQIEQGGFTVPSTVAEEKATNPFMRVRESEEIQKSIGTCDAVVGMAKLREMKNKF | not soluble
12 | RHLVVPLNRLRDRADALRADELESTPLAAPLAARRDELGELAQALEHMAERLRLSLAQQRLLLRTLSHELRTPLARLRIAHDSELPPEQLRQRLDREIGDMQRLLEDTLDLAWMDTERPQLPTEPVLALSVWEALRDDACFESGWDPARLPCRLGVDCRVEVHLDSLAQAMENLLRNAIRHSPEDGTVSLDGEREGDFWHLRLQDQGPGVAEDQLERIFLPYQRLDDSAGEGFGLGLAIARRAIELQGGRLWASNGKPGLC | not soluble
13 | MGSDKIHHHHHHVRVNVKSHGPRATFPAAPCLHRNPKVKLRLFPQEPAGLHLLSQMARQIVLATATLAEILGVPATEHNRLVEDMHDHEAKSAELHFALLTHMRTSFVNPLPREDMYALSRYLNEAMEKLDAAAELVALYKLERLPRRAADQLEIISRQAELTVDAMRQLNNLDDLEDYWIEILRLAKRAERTHRVWVADMIKDMKWAQYARNRDIANQLVEVTKDMRRIATQVGSIIVKES | not soluble
14 | ATADPGVRAMDYQQATDVVIARGLSQRGVPFSWAGGGINGPTRGTGTGANTVGFDASGLMQYAYAGAGIKLPRSSGAMYRVGQKILPQQARKGDLIFYGPEGTQSVAMYLGNNQMLEVGDVVQVSPVRTAGMAPYMVRVLGT | soluble
15 | MGSDKIHHHHHHMTWNLAGSYSETCSCELMCPCNMSFDHGATYDFCRVTLAFNVHEGSVEGTDIAGRKVVLIADTPKVMTDGNWRVGVFVDDGASEEQFDKLVQVFGGQLGGPMAGLAPLIGEMLGVQRAAIDIEDDGLLHSVRVGDEIDFQIQDIVPFGVETGEPVRFAGMFHPVGSDLVMAEAKRTRINAFGITYEGKTGLSKSSFTWAA | not soluble
16 | MHSVARENLQAYLHSYKLSSNEPGIKLMHNSQRDDQHRKDVEHFAALRALQHSKRKHVAFAVQAMRDYDGSLDEKSPLKDHTISFNTNDFIHIHTKFNSDWWIGRIVRSHSEFGFVPTARRLANYMVSDEDPPVKHNTSDHQDRSIWEPKCPYKVVPSSRPIVLLGPTLQHSRLTQLLHLALREEILKHFGKNMKYVKSDIGSGQQSGDRKGARWLRGLRDYDRGQDENQEVELIMRMTSKLHLLLVDSPHIHTPDDVQHLPLSPIFFLIRVSDNKILAKLLRNTGTTRMAAEIEVANVLKTMNDDRVGGHDDEQLIARGFEMVIEENGLREATRRIISYLEKYIHALHYHHKDDEI | not soluble
17 | MGVMNTGETLDEKAIVASAEKALSDIAAIRTEVSKVIFGQEKVVQNTLLAILSGGHALLVGVPGLAKTKLVTTLGTVLGLDANRIQFTPDLMPSDILGSEVMDQDENGRRSFRFIKGPIFGQLLMADEINRASPRTQSALLQAMQEYHITMAGQTYELPKPFHVLATQNPLEQEGTYPLPEAQLDRFLLQVDVDYPELAAERQILLDTTGTASGEARPVIGAERLMEIQALIRQMPVSDKVVDAILSLVRSARPGHGNKLTDKNVVWGPGPRAGQSLMLTARARALYEGRLAPSLDDVHALAEPVLEHRMALTFAARAEGMSVRDVIAALVEQAKN | not soluble
18 | MPVGRKEQIVDCRAVMGLGEGGGLAQRGTFAEGLRNDVVVVAMSPGRRHITKPVCEITYGIREAGIQTSVLVLDAGGGIPSDAPQGSLGSTFGLKPEEAKQVNRHKLCVIHFGNVKSHIIYKARLFLKYVDIPTIIVCQTPVDMEDFAAIGIKTKNVMPLESKTEGKIVEIITGVIRGESAPQKKIDEIIESIKKHLGLEHHHHHH | not soluble
19 | MILTTTHEIEGRRIERYLGIVFGEAIVGANVLRDLLAQIRDIVGGRSGAYEAELRRARETALAEMAEAARRLGADAVVGVDLDYEVLGSGNSMLMVTASGTAVKLAP | soluble
20 | MSLSDFHEVRFPLDVALRGSGGPVRRTEIVTLASGQEHRNSRWADSRRRYDAGLGMRTLDALHAVLSFFEERRGRMYGFRYRDRVDYRSGPPSQAPAPIDQAIGTGDGATRVFALAKTYGGGPQAYRRTIAKPVAGSVRVAVNGVELAAGAVSCDPATGRLTFAPGAVPPPGAAITAGFEFDVPVRFDTDELSIDMAAFTAGEVPRIPLIEIVLEGHHHHHH | soluble
21 | MASYLPSEWQDDLKMNGLMSVMKERHVNKVDYDRKLRFWTDAIYGSCIGEKNATFNLLELKKRFRRNDRVPASLDVILDHLKKKGDVITIGEWRDRHSSWVGWGFSKTKGWMFGASSDSEQLLHLPTIKKLGQEILDIYNEELRSEIDCTGEVVTYNEMFDRASNIISKIETFDIVLEHLNDIGELTVGTTRNGEKVLKFKDNGSEDPVKFTEADASVVDIRKAMNKLDREIQQLEQKVKKYDEQCRACLRTGDKGRAQNFLRQRKRAEKDIADKDVQYQKLLTMLHQISSAKNNKDVLQAYKSGTAAFKATLARQGLSPDKIHETMDDVVNSMDEYKEIEEAISSPFVNANGFNDADLEQELEDLISDNKKNESVHLPEAPTNRFGLFDKEVTPEEDQLEKRLARLRQAI | not soluble
22 | MSLKKAIAYMRFSSPGQMSGDSLNRQRRLIAEWLKVNSDYYLDTITYEDLGLSAFKGKHAQSGAFSEFLDAIEHGYILPGTTLLVESLDRLSREKVGEAIERLKLILNHGIDVITLCDNTVYNIDSLNEGHHHHHH | not soluble
